This is an account of results in paper PMC9615034.

Several values for one entry are separate records, joined by “and”; a condition that tells them apart may be missing. Identical values can stand only once. Like-named read-outs stand apart in the source and are kept apart here.

Experiment [1] deals with myeloperoxidase (Homo sapiens) (UniProt P05164). As to the kind of experiment: SPR. Particulars: cited from earlier work.
Experiment [2] addresses Myeloperoxidase (native) (Homo sapiens) (UniProt P05164). Nature of the experiment: SPR. Particulars: cited from earlier work.
Experiment [3] deals with myeloperoxidase (Homo sapiens) (UniProt P05164). To be noted: cited from earlier work.
The target is the same in experiment [4]. To be noted: cited from earlier work. This is another data set of the same source.
Experiment [5] has as its target biotinylated native human leukocyte myeloperoxidase (human) (UniProt P05164). Nature of the experiment: SPR; Biacore T200; biotinylated native MPO reversibly immobilised on a CAP chip (Biotin CAPture kit) to 500 RU; SPIN variants injected, 2-64 nM (legend: 32-2 nM), single cycle kinetics; RT; PBS, 0.05% Tween 20, 0.1% BSA; two-state model for SPIN-aureus, 1:1 model for SPIN-truncated. (In SPR one partner is held on a chip, and binding of the other changes the refractive index at the surface.)

Experiment [6] deals with mature dimeric human leukocyte myeloperoxidase (human) (UniProt P05164).
Experiment [7] has the same target. The source holds these as a separate data set.
For experiment [8] the target is unchanged. As to the kind of experiment: ITC; 10 μM MPO in the cell, 150 μM SPIN variant as titrant, 19 injections of 3 μl; 50 mM phosphate buffer pH 7.4 or pH 5; one-site binding model. (In ITC the heat of successive injections is recorded.)

For the molecule “SPIN-truncated CTD (from UniProt A0A0H3K703)”, the values for the Kd in experiment [1] and in experiment [2] were 35.1 nM and 29.8 nM, respectively.
In the case of SPIN-aureus (from UniProt A0A0H3K703), the Kd in experiment [1] was 11.8 nM; in experiment [2], 15.9 nM and 9.3 nM; in experiment [3], 10 nM.
With “SPIN-truncated C-terminal domain (from UniProt A0A0H3K703)”, the Kd in experiment [4] was 10 nM.

B1: SPIN-aureus (Staphylococcal Peroxidase Inhibitor from Staphylococcus aureus) (natural protein)
chain: SQNGLVLHDDANFLEHELSYIDVLLDKNADQATKDNLRSYFADKGLHSIKDIINKAKQDGFDVSKYEHVK
Consider B1, for which, in experiment [5], the Kd worked out at 0.005 nM; the koff1 (two-state model, first step) stood at 0.005 s⁻¹; the koff2 (two-state model, second step) was 3.5e-06 s⁻¹; the kon1 (two-state model, first step) turned out to be 590000 M⁻¹ s⁻¹. In addition, in experiment [6], the half maximal inhibition time IT50 of the bromination activity of MPO, first phase (incubation 0-5 min, ∼80% total inhibition) was determined as 2.4 s; the half maximal inhibition time IT50 of the bromination activity of MPO, second phase (incubation 5-120 min) came out at 24 min; the inhibition of the bromination activity of MPO (MCD assay, pH 5) after preincubation with SPIN-aureus for 0 to 120 min came to 99.5%. Also, in experiment [7], the shift of the Tm of MPO by DSC, MPO with SPIN-aureus against MPO alone, pH 5 was determined as 5 °C and the shift of the Tm of MPO by DSC, MPO with SPIN-aureus against MPO alone, pH 7.4 is 1.5 °C.

B2: SPIN-truncated (domain or fragment)
chain: LEHELSYIDVLLDKNADQATKDNLRSYFADKGLHSIKDIINKAKQDGFDVSKYEHVK
B2: in experiment [8], the Kd is 5.9 nM and the dH was -17.4 kcal/mol. Besides, in experiment [5], the Kd turned out to be 21 nM, the koff was determined as 0.016 s⁻¹ and the kon is 110000 M⁻¹ s⁻¹.

For orientation: Kd means the constant that tells how readily two partners part at equilibrium. In general, koff refers to a measure of how fast the partners let go of each other. One may read the kon as the second-order rate constant of association. The low end stands for slower complex formation, the high end for faster complex formation.
